One block for each binder: values may come before it.
Biological target: T1, flag tagged full length HDAC4 (human, UniProt P56524 1-1084)
T1 construct: Full length, expressed in transfected cells and immunoprecipitated from lysate; also called Flag-HDAC4; pcDNA HDAC4-flag; not shown: Flag tag
Experiment: co-immunoprecipitation, IP anti-Flag, blot anti-HA (FIG. 7B)
Description: Cultured cells were washed with ice-cold phosphate-buffered saline (PBS) buffer and lysed in buffer containing 50 mM Tris, pH 7.5, 150 mM NaCl, 1 mM EDTA, and 1% NP-40. 400 μg of protein was immunoprecipitated with anti-Flag (Sigma-Aldrich), or IgG antibodies (negative control) and protein A/G agarose beads (Santa Cruz Biotechnology, Inc.) as described previously [Kehat I, et al., Modulation of chromatin position and gene expression by HDAC4 interaction with nucleoporins. J Cell Biol 2011, 193, 21-29]. Beads were washed three times with buffer and suspended in 30 μl of Laemmli buffer. Proteins were separated on an SDS gel, blotted, and detected with primary antibody recognizing HA (Santa Cruz Biotechnology, Inc. sc-805) or flag (Sigma-Aldrich).

T1 sequence (P56524 whole entry): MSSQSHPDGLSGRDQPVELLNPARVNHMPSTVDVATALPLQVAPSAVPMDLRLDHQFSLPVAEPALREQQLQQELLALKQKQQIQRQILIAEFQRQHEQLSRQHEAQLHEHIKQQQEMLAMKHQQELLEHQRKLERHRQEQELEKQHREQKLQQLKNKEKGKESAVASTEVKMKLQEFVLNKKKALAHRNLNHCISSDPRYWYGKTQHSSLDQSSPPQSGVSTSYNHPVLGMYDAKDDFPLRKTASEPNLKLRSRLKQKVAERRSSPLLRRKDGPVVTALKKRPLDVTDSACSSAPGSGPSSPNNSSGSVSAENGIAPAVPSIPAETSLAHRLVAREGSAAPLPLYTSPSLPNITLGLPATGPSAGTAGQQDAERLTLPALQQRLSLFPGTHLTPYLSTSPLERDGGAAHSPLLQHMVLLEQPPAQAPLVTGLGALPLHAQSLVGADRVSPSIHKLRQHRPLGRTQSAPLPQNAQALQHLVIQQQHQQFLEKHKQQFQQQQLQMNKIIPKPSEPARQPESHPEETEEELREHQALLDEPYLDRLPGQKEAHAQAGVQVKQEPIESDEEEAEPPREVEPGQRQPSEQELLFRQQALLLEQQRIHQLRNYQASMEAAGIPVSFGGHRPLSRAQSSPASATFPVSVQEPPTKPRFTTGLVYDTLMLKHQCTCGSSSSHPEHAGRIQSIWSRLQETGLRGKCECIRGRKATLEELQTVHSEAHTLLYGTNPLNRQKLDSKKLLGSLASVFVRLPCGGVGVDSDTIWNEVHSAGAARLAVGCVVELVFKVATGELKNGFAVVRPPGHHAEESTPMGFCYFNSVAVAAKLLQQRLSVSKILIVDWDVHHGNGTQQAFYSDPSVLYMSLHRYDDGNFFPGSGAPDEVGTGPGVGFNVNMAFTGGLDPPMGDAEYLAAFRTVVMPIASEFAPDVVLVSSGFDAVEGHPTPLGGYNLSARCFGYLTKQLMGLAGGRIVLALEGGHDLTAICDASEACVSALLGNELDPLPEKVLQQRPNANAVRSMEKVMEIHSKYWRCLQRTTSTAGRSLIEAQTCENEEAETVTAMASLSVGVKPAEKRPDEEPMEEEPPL

binding result: no binding
B1: 3HA tagged ENIGMA fragment containing the linker and first LIM domain (other, mouse, UniProt Q3TJD7 86-338, looked up)
chain: PVQSKPQKALTPPADPPRYTFAPSASLNKTARPFGAPPPTDSTLRQNGQLLRQPVPDASKQRLMEDTEDWRPRPGTGQSRSFRILAHLTGTEFMQDPDEEFMKKSSQVPRTEAPAPASTIPQESWPGPTTPSPTSRPPWAVDPAFAERYAPDKTSTVLTRHSQPATPTPLQNRTSIVQAAAGGGTGGGSNNGKTPVCHQCHKIIRGRYLVALGHAYHPEEFVCSQCGKVLEEGGFFEEKGAIFCPSCYDVRYA
notes: domain: linker and first LIM domain; not shown: 3HA tag

binding result: no binding
B2: 3HA tagged ENIGMA fragment containing the PDZ domain and linker (other, mouse, UniProt Q3TJD7 1-279, looked up)
chain: MDSFKVVLEGPAPWGFRLQGGKDFNVPLSISRLTPGGKAAQAGVAVGDWVLNIDGENAGSLTHIEAQNKIRACGERLSLGLSRAQPVQSKPQKALTPPADPPRYTFAPSASLNKTARPFGAPPPTDSTLRQNGQLLRQPVPDASKQRLMEDTEDWRPRPGTGQSRSFRILAHLTGTEFMQDPDEEFMKKSSQVPRTEAPAPASTIPQESWPGPTTPSPTSRPPWAVDPAFAERYAPDKTSTVLTRHSQPATPTPLQNRTSIVQAAAGGGTGGGSNNGKT
notes: domain: PDZ domain and linker; not shown: 3HA tag
